These results are taken from the PETadex activity labels (doi:10.1128/aem.01704-22).

First the molecules themselves.
B1: unnamed (protein)
chain: MALYPSARWVLDRMAERGTRPFNEVPVERARQQFDAMMAGAPRPEVARTEDRTVPGPAGDIPVRIYWPQQQTLPLLLVYFHGGGWIMGSIESHDPTCRAIANVAGCIVVSVGYRLAPEHKFPEPLEDCYAAVRWAEENAASLGADPSLLAVGGDSAGGNLAAAVSLLARDRGGPRLAHQVLAYPVLSHGAAFPSYEENADGYFLTREMMLYCWRQYLRDEKDGDDPYASPLKASELSGLPTATIITAEHDPLRDEAEAYGVRLAQAGVPNYCLRYVGMIHGFLSLDNLLPPGRHALWSVATGLRLAATETHKRA
B2: unnamed (protein)
chain: MALDPGAAALLQQMAQAGVPPFNQMTVQQARQSMTGLAGTAPKYPVAKVEDRTIPGPAGQIPVRIYWPISGQKVGLVVYYHGGGWVICDLETHDGTCRQLANASDCIVMSVDYRLAPEHKFPAAVEDCYAAAAWAAENAATFGVDPSRLVVAGDSAGGNLAAVVALLAKERGGPRLAHQVLIYPVTDYSFDRPSYRENAEGYLLTRDAMEWFWRHYLNSDADGQNPLASPLRAPDLRGLPSATVITAEYDPLRDEGEAYAQRLMEAGVPTTCVRYLGQIHGFVTLEHVLPAGRQALLALGATIKGVLTGALGGQPAAA

Substrate in one data set: p-NP-C2
Experiment: not given
To be noted: pH 9; 30 °C.
What is called Km is the concentration of substrate that gives half-maximal velocity. As usually defined, the kcat is the maximal rate divided by the concentration of active sites. As a reminder, the kcat/Km is the turnover number divided by the Michaelis constant. In the case of B1, the Km turned out to be 50 µM, the turnover number (kcat) is 42 s⁻¹ and the kcat/Km was 839000 M⁻¹ s⁻¹.
The corresponding values for B2 are 220 µM, 57.1 s⁻¹ and 260000 M⁻¹ s⁻¹.

Substrate in a further data set: p-NP-C4
Experiment: not given
To be noted: pH 9; 30 °C.
With B1, the Km is 60 µM, the kcat was 66.2 s⁻¹ and the kcat/Km stood at 1.1e+06 M⁻¹ s⁻¹.
Take B2: the Km was 80 µM, the kcat came to 8.77 s⁻¹ and the kcat/Km was found to be 110000 M⁻¹ s⁻¹.

Substrate in the next data set: p-NP-C6
Experiment: not given
To be noted: pH 9; 30 °C.
B1: the Km came to 40 µM, the kcat came to 1.45 s⁻¹ and the kcat/Km came to 36200 M⁻¹ s⁻¹.
Consider B2, for which the Km turned out to be 90 µM, the kcat was 0.318 s⁻¹ and the kcat/Km was 3530 M⁻¹ s⁻¹.

Substrate in another data set: PET
Nature of the data set: Proxy for plastic degradation [Released monomer concentration (HPLC/LC-MS) (BHET)]. To be noted: pH 8.
With B1, the “Proxy for plastic degradation” value was determined as 0.126 mM.
On to B2, for which the “Proxy for plastic degradation” value turned out to be 0.075 mM.
